Measured values published in patent US20080274977A1.

T1: chemokine CXCR2 (IL-8Rb), P25025
T1 chain: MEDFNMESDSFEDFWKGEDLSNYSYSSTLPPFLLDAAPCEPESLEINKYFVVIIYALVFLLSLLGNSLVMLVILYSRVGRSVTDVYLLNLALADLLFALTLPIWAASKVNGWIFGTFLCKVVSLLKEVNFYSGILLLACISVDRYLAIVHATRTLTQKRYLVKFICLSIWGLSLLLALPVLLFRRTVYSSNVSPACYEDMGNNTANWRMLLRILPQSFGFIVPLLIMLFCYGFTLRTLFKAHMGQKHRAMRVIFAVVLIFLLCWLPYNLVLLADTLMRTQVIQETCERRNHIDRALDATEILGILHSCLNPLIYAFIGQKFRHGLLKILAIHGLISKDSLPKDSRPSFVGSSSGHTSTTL


Assays:
[1] = biological target: N-type calcium channel (receptor binding screen of Example 1)
[2] = biological target: T1, chemokine CXCR2 (IL-8Rb), P25025

Molecule | % inhibition [1] [%] | % inhibition [2] [%]
Tat-NR2B9c (peptide) | 100 | 
YGRKKRRQRRRKLSSIESDV (modifications not checked) [Tat-NR2B9c] |  | 80
